# Test results as given in US20220098328A1, “ANTIBODIES TO M(H)DM2/4 AND THEIR USE IN DIAGNOSING AND TREATING CANCER” (NomoCan Pharmaceuticals LLC, priority 2017, published 2022).
# B1: NMC-303: mouse monoclonal antibody of the IgM isotype that binds to NMC-P3 (SEQ ID NO:3); VH SEQ ID NO:40, VL SEQ ID NO:41 (antibody, V domains shown)
# VH: QVQLQQPGAELVKPGASVKLSCKASGYTFTSYYMYWVKQRPGQGLEWIGGINPRNGGTNFNEKFKNKATLTADKSSTTAYMQLSSLTSEDSAVYYCTRSGYYAMDYWGQGTSVTVSS
# VL: DIQMTQTTSSLSASLGDRVTISCRASQDISNFLNWYQQKPDGTVKLLIYYTSRLHSGVPSRFSGSGSGTDYSLTISNLEQEDIATYFCQQGNTLPRTFGGGTKLEIK
# modifications: mAb NMC-303 Heavy Chain Variable Region; mAb NMC-303 Light Chain Variable Region
# Assays:
# [1] = test system: plasma membrane M(H)DM2/4; assay: Plasma membrane M(H)DM2/4 after treatment of cells with chemotherapeutic agents (in vitro); format: cell-based; details: data not shown
# [2] = biological target: E-Cadherin on intact mouse LL/2 cancer cells (mouse) (UniProt P09803); assay: cell-based ELISA on intact LL/2 cells, 5 µg/mL, OD450
# [3] = test system: human pancreatic cancer MIA PaCa-2 cells; assay: Cell-ELISA on intact cells; format: cell-based
# Method: (§1) Cell-ELISA Methodology: 8,000-10,000 cells/well of a 96-well microplate were grown overnight. The next day, unbound cells were washed off with sterile 1×PBS. The cells in each well were fixed with freshly prepared 4% buffered paraformaldehyde (pH 7.2) for 1 hour followed by 3 washes with 1×PBS. The wells were then blocked with 5% BSA in PBS (100 μl/well) for 2 hours at room temperature. Microplate wells were then washed 5 times with 300 μl of ice cold 1×PBS. MAbs NMC-103, NMC-204 or NMC-303 at 1 μg/mL in 1% BSA/PBS were then incubated with various cancer or normal untransformed cells for 2 hours at room temperature. Wells were then washed with 300 μl of ice-cold 1×PBS for 5 times and corresponding secondary antibody HRP-GaM F(ab′)2 diluted 1:2500 or 1:5000 in PBS with 1% BSA were added at 100 μl/well for 1 hour at room temperature followed by washing 5 times with 300 μl of ice-cold 1×PBS. TMB Substrate Solution (1-Step™ Ultra TMB-ELISA, ThermoFisher, Cat. No. 34028) was then added at 50 μL to each microplate well and incubated at room temperature for 30 minutes. The reaction was stopped by addition of 50 μL of stop solution (ThermoFisher, Cat. No. SS04) to each well and absorbance of each well was measured at OD450 nm. The absorbance value of each experimental well was corrected for the absorbance value obtained from wells treated with isotype-identical mAbs included in each experiment. The results are thus expressed as “relative binding”.
# (§2) In a 96-well microplate, 15,000 cells/well were cultured overnight. The next day, unbound cells were washed off with sterile 1×PBS. The cells in each well were fixed with freshly prepared 4% buffered paraformaldehyde (pH 7.2) for 1 hour, followed by 3 washes with 1×PBS. The wells were then blocked with 5% BSA in PBS (100 μl/well) for 2 hours at room temperature. Microplate wells were then washed 5 times with 300 μl of ice cold 1×PBS. Monoclonal antibodies NMC-H103 (VH4/VK3) or NMC-C303 at 5 μg/mL in 1% BSA/PBS were then incubated with various cancer cells for 2 hours at room temperature. Wells were then washed with 300 μl of ice-cold 1×PBS for 5 times and corresponding secondary antibody HRP-GaH F(ab′)2 diluted 1:2000 or 1:4000 in PBS with 1% BSA were added at 100 μl/well for 1 hour at room temperature followed by washing 5 times with 300 μl of ice-cold 1×PBS. TMB Substrate Solution (1-Step™ Ultra TMB-ELISA, ThermoFisher, Cat. No. 34028) was then added at 50 μL to each microplate well and incubated at room temperature for 30 minutes. The reaction was stopped by addition of 50 μL of stop solution (ThermoFisher, Cat. No. SS04) to each well and absorbance of each well was measured at OD450 nm. The absorbance value of each experimental well was corrected for the absorbance value obtained from wells treated with isotype-identical mAbs included in each experiment.
# [4] = test system: human, murine, rabbit protein; design: key: H—binds to human protein; M—binds to murine protein; R—binds to rabbit protein; details: cited from earlier work
# [5] = biological target: NMC-P3 peptide (SEQ ID NO:3), amino acids 475-491 of HDM2 (Homo sapiens, UniProt Q00987); assay: Peptide-ELISA; format: binding; details: 5 μg/ml peptide on plate, OD 450 nm
# Method: Peptide-ELISA Methodology: 5 μg/ml of NMC-P1, NMC-P2 or NMC-P3 peptide antigen was dried onto a 96-well ELISA plate overnight. Plates were then blocked with 5% BSA in 1× phosphate-buffered saline (PBS) (100 μl/well) for 2 hours at room temperature. Microplate wells were then washed 5 times with 300 μl of ice cold 1×PBS. Appropriate dilutions of monoclonal antibodies NMC-103, NMC-204 or NMC-303 in 1% bovine serum albumin (BSA) in PBS solution were then incubated with their corresponding peptides (NMC-P1, NMC-P2 or NMC-P3, respectively) at room temperature. After 2 hours, wells were washed 5 times with 300 μl ice-cold PBS/well and 100 μl secondary antibody (HRP-labeled Goat anti-Mouse F(ab′)2 H&L cross-adsorbed secondary antibody (HRP-GaM F(ab′)2), ThermoFisher, Cat. No. A24524) diluted 1:2500 to 1:5000 in PBS-1% BSA solution were added and the incubation continued at room temperature. After 1 hour, the wells were washed again 5 times with 200 μl of ice-cold PBS and 50 μL of the TMB Substrate Solution (1-Step™ Ultra TMB-ELISA, ThermoFisher, Cat. No. 34028) were added to each well and color was allowed to develop for 30 minutes at room temperature. The reaction was stopped by addition of 50 μL of stop solution (ThermoFisher, Cat. No. SS04) to each well and absorbance of each well was read immediately for optical density (OD) at 450 nm.
# [6] = biological target: T1, recombinant HDM2 protein (GST tagged) (Homo sapiens, UniProt Q00987); assay: Western blot (immunoblot); format: binding; details: 1 μg/well protein, antibody 1 μg/ml; band at approximately 83 kD
# T1 construct: NMC-103, NMC-204 and NMC-303 reacted with the recombinant full-length HDM2 protein; purchased Abcam ab188727
# Method: Western Blot: As for immunoblots, 1 μg/well of recombinant HDM2 protein (GST tagged, Abcam, Cat. No. ab188727) was separated on 8-16% sodium dodecyl sulfate (SDS) polyacrylamide gel and proteins were then transferred to polyvinylidene difluoride (PVDF) membrane. The membrane was blocked with 5% milk followed by incubation with monoclonal antibody NMC-103, NMC-204 or NMC-303 at 1 μg/ml in 1% milk in PBS for 2 hours. The membrane was then washed ×3 times (10 minutes each) and incubated for 1 hour with corresponding HRP-conjugated secondary antibody (Goat anti-Mouse IgG (H&L), F(ab′)2 Frag Cross-adsorbed HRP (HRP-GaM F(ab′)2), ThermoFisher, Cat. No. A24524) diluted 1:5000 in 1% BSA-PBS. The membrane was then washed ×3 times and incubated with Pierce ECL Plus Western Blotting Substrate (ThermoFisher, Cat. No. #32132) for 10 min before developing on a LICOR Scanner.
# [7] = test system: human breast cancer MCF-7 cells; assay: Cell-ELISA on intact cells; format: cell-based; details: MCF-7; mAb 1 μg/mL; fixed, non-permeabilized cells
# Method: as §1, §2
# [8] = test system: human melanoma A2058 cells; assay: Cell-ELISA on intact cells; format: cell-based; details: A2058; mAb 1 μg/mL; fixed, non-permeabilized cells
# Method: as §1, §2
# [9] = test system: human ovarian cancer OVCAR-3 cells; assay: Cell-ELISA on intact cells; format: cell-based; details: OVCAR-3 (resistant to adriamycin, melphalan, cisplatin); mAb 1 μg/mL; fixed, non-permeabilized cells
# Method: as §1, §2
# [10] = test system: mouse Lewis Lung LL/2 cells; assay: Cell-ELISA on intact cells; format: cell-based; details: LL/2; mAb 1 μg/mL; fixed, non-permeabilized cells
# Method: as §1, §2
# [11] = test system: mouse colon cancer MC-38 cells; assay: Cell-ELISA on intact cells; format: cell-based; details: MC-38; mAb 1 μg/mL; fixed, non-permeabilized cells
# Method: as §1, §2
# [12] = test system: mouse pancreatic Panc02 cells; assay: Cell-ELISA on intact cells; format: cell-based; details: Panc02; mAb 1 μg/mL; fixed, non-permeabilized cells
# Method: as §1, §2
# [13] = test system: primary patient-derived human ovarian cancer OVCA4 cells; assay: Cell-ELISA on intact cells; format: cell-based; details: OVCA4; mAb 1 μg/mL; fixed, non-permeabilized cells
# Method: as §1, §2
# [14] = test system: human triple negative breast cancer HCC1806 cells; assay: Cell-ELISA on intact cells; format: cell-based; details: mAb 1 μg/mL, fixed, non-permeabilized cells
# Method: as §1
# [15] = test system: human uveal melanoma 92.1 cells; assay: Cell-ELISA on intact cells; format: cell-based; details: mAb 1 μg/mL, fixed, non-permeabilized cells
# Method: as §1
# [16] = test system: normal human peripheral blood mononuclear cells (PBMCs); assay: Cell-ELISA on intact cells; format: cell-based; details: freshly isolated normal human PBMCs
# Method: as §1
# E-Cadherin on intact mouse LL/2 cancer cells (mouse), sequence (P09803 157-884): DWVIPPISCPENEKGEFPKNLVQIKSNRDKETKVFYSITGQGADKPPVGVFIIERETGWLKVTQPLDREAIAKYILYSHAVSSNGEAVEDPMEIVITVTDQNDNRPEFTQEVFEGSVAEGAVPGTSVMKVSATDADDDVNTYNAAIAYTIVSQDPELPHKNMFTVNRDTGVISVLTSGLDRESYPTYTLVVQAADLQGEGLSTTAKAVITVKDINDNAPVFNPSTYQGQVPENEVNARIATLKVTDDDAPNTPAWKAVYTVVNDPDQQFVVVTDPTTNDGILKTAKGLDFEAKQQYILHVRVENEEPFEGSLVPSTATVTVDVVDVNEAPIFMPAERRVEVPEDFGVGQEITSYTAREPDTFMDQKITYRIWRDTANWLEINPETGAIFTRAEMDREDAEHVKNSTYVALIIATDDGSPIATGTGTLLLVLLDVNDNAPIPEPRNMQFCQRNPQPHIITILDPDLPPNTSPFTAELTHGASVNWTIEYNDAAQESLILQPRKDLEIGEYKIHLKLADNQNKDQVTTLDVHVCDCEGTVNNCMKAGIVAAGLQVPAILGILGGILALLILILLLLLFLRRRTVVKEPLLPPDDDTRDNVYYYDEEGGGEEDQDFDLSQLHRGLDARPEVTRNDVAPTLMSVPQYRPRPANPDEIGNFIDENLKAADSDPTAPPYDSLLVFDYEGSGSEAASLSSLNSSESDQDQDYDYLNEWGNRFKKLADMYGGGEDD
# T1 sequence (Q00987 whole entry): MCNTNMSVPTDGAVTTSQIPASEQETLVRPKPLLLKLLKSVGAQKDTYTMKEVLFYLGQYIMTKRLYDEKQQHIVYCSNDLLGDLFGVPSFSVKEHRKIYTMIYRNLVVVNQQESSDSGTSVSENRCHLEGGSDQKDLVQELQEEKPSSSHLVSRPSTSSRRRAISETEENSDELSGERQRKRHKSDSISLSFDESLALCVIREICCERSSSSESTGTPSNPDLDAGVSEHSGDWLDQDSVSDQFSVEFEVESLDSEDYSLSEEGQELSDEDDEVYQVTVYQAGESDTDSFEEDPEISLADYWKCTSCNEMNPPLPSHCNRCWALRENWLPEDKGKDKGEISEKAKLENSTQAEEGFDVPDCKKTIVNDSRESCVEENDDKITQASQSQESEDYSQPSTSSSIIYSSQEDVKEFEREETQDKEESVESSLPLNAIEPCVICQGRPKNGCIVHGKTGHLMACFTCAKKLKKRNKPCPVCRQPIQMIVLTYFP
molecule,measurement,setting,value
CC(=O)O[C@H]1C(=O)[C@@]2(C)[C@H]([C@H](OC(=O)c3ccccc3)[C@]3(O)C[C@H](OC(=O)[C@H](O)[C@@H](NC(=O)c4ccccc4)c4ccccc4)C(C)=C1C3(C)C)[C@]1(OC(C)=O)CO[C@@H]1C[C@@H]2O [Paclitaxel],plasma membrane M(H)DM2/4 level of treated cells,[1],increase in plasma membrane M(H)DM2/4
E-cadherin G10 (SC-8426) (antibody),average OD reading,[2],1.49 OD
Nc1ccn([C@@H]2O[C@H](CO)[C@@H](O)C2(F)F)c(=O)n1 [Gemcitabine],plasma membrane M(H)DM2/4 level of treated cells,[1],increase in plasma membrane M(H)DM2/4
Cytochrome C [reference compound],"binding to intact, EDTA-released MiaPaCa-2 cells, cell-ELISA","[3]; EDTA 10 mmols, pH 7.2, 5 min, 37° C.",only minimal binding
same,Species Reactivity,[4],H
B1,binding to NMC-P3 peptide,[5],bound
same,reactivity with recombinant full-length HDM2-GST protein (immunoblot),[6],reacted
same,"relative binding (reactivity) to intact cells, cell-ELISA",[7],reactivity
same,"relative binding (reactivity) to intact cells, cell-ELISA",[8],reactivity
same,"relative binding (reactivity) to intact cells, cell-ELISA",[9],reactivity
same,"relative binding (reactivity) to intact cells, cell-ELISA","[3]; MIA PaCa-2, mAb 1 μg/mL, fixed, non-permeabilized cells",reactivity
same,binding to intact MIA PaCa-2 cells when competed with NMC-P3 peptide,[3]; cell-ELISA peptide competition,competed
same,"relative binding (reactivity) to intact cells, cell-ELISA",[10],reactivity
same,"relative binding (reactivity) to intact cells, cell-ELISA",[11],reactivity
same,"relative binding (reactivity) to intact cells, cell-ELISA",[12],reactivity
same,"relative binding (reactivity) to intact cells, cell-ELISA",[13],reactivity
same,"relative binding (reactivity) to intact cells, cell-ELISA",[14],reactivity
same,"relative binding (reactivity) to intact cells, cell-ELISA",[15],reactivity
same,"binding to intact normal cells, cell-ELISA",[16],virtually no binding
